Source: article PMC3684718, “Novel CAD-like enzymes from Escherichia coli K-12 as additional tools in chemical production” (Applied Microbiology and Biotechnology, 2012)

Experiments:
[1] = substrate: CC(C)C=O; assay: purified protein, by the assay type; set-up: NADPH/NADP+ absorbance at 340 nm, purified His-tagged enzyme, Michaelis-Menten fit; pH 7.5 reduction, pH 8.5 oxidation, 37 °C
Method: (§1) The ADH activity was determined photometrically by monitoring the increase/decrease of NADP^+/NADPH at 340 nm in a Mulitskan® spectrum spectrophotometer (Thermo Fisher Scientific). The reaction mixture contained 50 mM Tris-HCl, pH 7.5, 0.3 mM NAD(P)H a defined aldehyde as substrate, and the purified enzyme at 37 °C. One unit of enzyme activity was defined as the amount of protein that oxidizes 1 μmol of NAD(P)H/min at 37 °C. Calculation of Michaelis–Menten kinetics for determination of K m and V max was done with SigmaPlot 11.0 (Systat Software). Alcohols with alkyl chains longer than C6 were not tested as substrates due to solubility problems. For the characterization of recombinant YahK and YjgB, enzyme activity was assayed for the reduction of carbonyl compounds and the oxidation of alcohols. For the reduction of carbonyl compounds, the assays were conducted at pH 7.5, 50 mM Tris-HCl, and 37 °C. The oxidation of alcohols was assayed with a slightly higher pH of 8.5, 50 mM Tris-HCl, and 37 °C. […] The decrease of NADPH at 340 nm was determined using a Shimadzu UV-1800 UV-spectrophotometer (Duisburg, Germany) Protein expression is exemplarily described for one enzyme and was performed for other proteins by the same procedure. E. coli BL21(DE3) containing the plasmid of interest was grown in 50 ml autoinduction media for efficient protein expression (Studier [2005]). In the case of YjgB, YahK, and YqhD, additional ZnCl2 was added to the media with a final concentration of 0.1 mM. The preculture was incubated in 4 ml of LB medium with 100 μg/ml kanamycin at 37 °C overnight on a rotary shaker (180 rpm). Expression culture was inoculated with a 1:100 dilution of overnight culture. Incubation was performed foremost 3 h at 37 °C followed by incubation for 21 h at 16 °C. Cells were harvested by centrifugation and resuspended in 50 mM sodium phosphate buffer (pH 8.0, 20 mM imidazol, 500 mM NaCl, and 10 % glycerol). Crude extracts were prepared by use of a cell disrupter (IUL Instruments) and subsequent addition of MgCl2 to a final concentration of 2.5 mM in combination with DNase (1 μg/ml) and a following incubation for 20 min at room temperature for DNA degradation. The insoluble fraction of the lysate was removed by centrifugation at 20,000 rpm for 40 min at 4 °C. The supernatant was filtered through a 0.45-μm syringe filter and applied to an affinity resin column, 5 ml HisTrap^TM FF, equilibrated with the resuspension buffer using the ÄKTA UPC-900 FPLC-system. The enzyme was washed with 20 ml of resuspension buffer and eluted with 50 mM sodium phosphate buffer (pH 8.0, 500 mM imidazol, 500 mM NaCl, and 10 % glycerol). Aliquots of each eluted fraction were subjected to 12 % SDS-PAGE. The fractions containing the eluted protein were pooled and the protein was desalted using a HiPrep^TM 26/10 Desalting column which preliminary equilibrated with 50 mM Tris-HCl, pH 8.0. Protein concentrations were determined using a Bradford assay Roti®-nanoquant (Carl Roth).

[2] = substrate: OCCCCO; assay: purified protein, by the assay type; set-up: NADPH/NADP+ absorbance at 340 nm, purified His-tagged enzyme, Michaelis-Menten fit; pH 7.5 reduction, pH 8.5 oxidation, 37 °C
Method: as §1

[3] = substrate: CC=O; assay: purified protein, by the assay type; set-up: NADPH/NADP+ absorbance at 340 nm, purified His-tagged enzyme, Michaelis-Menten fit; pH 7.5 reduction, pH 8.5 oxidation, 37 °C
Method: as §1

[4] = substrate: O=Cc1ccccc1; assay: purified protein; format: biochemical, Escherichia coli; details: NADPH 0.3 mM, 50 mM Tris-HCl pH 7.5, 37 °C, pH 7.5
[5] = substrate: CCC=O; assay: purified protein; format: biochemical, Escherichia coli; details: NADPH 0.3 mM, 50 mM Tris-HCl pH 7.5, 37 °C, pH 7.5
[6] = substrate: NC(=O)C1=CN([C@@H]2O[C@H](COP(=O)(O)OP(=O)(O)OC[C@H]3O[C@@H](n4cnc5c(N)ncnc54)[C@H](OP(=O)(O)O)[C@@H]3O)[C@@H](O)[C@H]2O)C=CC1; assay: purified protein; format: biochemical, Escherichia coli; details: butyraldehyde, 50 mM Tris-HCl pH 7.5, 37 °C, pH 7.5, varied: cofactor
[7] = substrate: NC(=O)c1ccc[n+]([C@@H]2O[C@H](COP(=O)(O)OP(=O)(O)OC[C@H]3O[C@@H](n4cnc5c(N)ncnc54)[C@H](OP(=O)(O)O)[C@@H]3O)[C@@H](O)[C@H]2O)c1; assay: purified protein; format: biochemical, Escherichia coli; details: butanol, 50 mM Tris-HCl pH 8.5, 37 °C, pH 8.5, varied: cofactor
[8] = substrate: O=Cc1ccco1; assay: purified protein; format: biochemical, Escherichia coli; details: NADPH 0.3 mM, 50 mM Tris-HCl pH 7.5, 37 °C, pH 7.5
[9] = substrate: C/C=C/C=O; assay: purified protein; format: biochemical, Escherichia coli; details: NADPH 0.3 mM, 50 mM Tris-HCl pH 7.5, 37 °C, pH 7.5
[10] = substrate: O=CCCCC=O; assay: purified protein; format: biochemical, Escherichia coli; details: NADPH 0.3 mM, 50 mM Tris-HCl pH 7.5, 37 °C, pH 7.5
[11] = substrate: CCCCO; assay: purified protein; format: biochemical, Escherichia coli; details: NADP+, 50 mM Tris-HCl pH 8.5, 37 °C, pH 8.5
[12] = substrate: CCCC=O; assay: purified protein; format: biochemical, Escherichia coli; details: NADPH 0.3 mM, 50 mM Tris-HCl pH 7.5, 37 °C, pH 7.5
[13] = substrate: CCCCCC=O; assay: purified protein; details: NADPH 0.3 mM, 50 mM Tris-HCl pH 7.5, 37 °C
[14] = substrate: CCC=O; assay: purified protein, by the assay type; set-up: NADPH/NADP+ absorbance at 340 nm, purified His-tagged enzyme, Michaelis-Menten fit; pH 7.5 reduction, pH 8.5 oxidation, 37 °C
Method: as §1

[15] = substrate: CC(C)C=O; assay: purified protein; details: NADPH 0.3 mM, 50 mM Tris-HCl pH 7.5, 37 °C
[16] = substrate: O=C[C@H](O)CO; assay: purified protein; details: NADPH 0.3 mM, 50 mM Tris-HCl pH 7.5, 37 °C

| Protein | Km [2] [µM] | kcat [2] [s⁻¹] | kcat/Km [2] [M⁻¹ s⁻¹] | Km [3] [µM] | kcat [3] [s⁻¹] | kcat/Km [3] [M⁻¹ s⁻¹] | Km [4] [µM] | kcat [4] [s⁻¹] | kcat/Km [4] [M⁻¹ s⁻¹] | Km [6] [µM] | kcat [6] [s⁻¹] | kcat/Km [6] [M⁻¹ s⁻¹] | Km [7] [µM] | kcat [7] [s⁻¹] | kcat/Km [7] [M⁻¹ s⁻¹] | Km [8] [µM] | kcat [8] [s⁻¹] | kcat/Km [8] [M⁻¹ s⁻¹] | Km [9] [µM] | kcat [9] [s⁻¹] | other results |
| --- | --- | --- | --- | --- | --- | --- | --- | --- | --- | --- | --- | --- | --- | --- | --- | --- | --- | --- | --- | --- | --- |
| YjgB (Escherichia coli K-12) (protein, expressed in E. coli BL21(DE3) with ZnCl2) MSMIKSYAAKEAGGELEVYEYDPGELRPQDVEVQVDYCGICHSDLSMIDNEWGFSQYPLVAGHEVIGRVVALGSAAQDKGLQVGQRVGIGWTARSCGHCDACISGNQINCEQGAVPTIMNRGGFAEKLRADWQWVIPLPENIDIESAGPLLCGGITVFKPLLMHHITATSRVGVIGIGGLGHIAIKLLHAMGCEVTAFSSNPAKEQEVLAMGADKVVNSRDPQALKALAGQFDLIINTVNVSLDWQPYFEALTYGGNFHTVGAVLTPLSVPAFTLIAGDRSVSGSATGTPYELRKLMRFAARSKVAPTTELFPMSKINDAIQHVRDGKARYRVVLKADF | 24100 ± 1500 | 12.9 ± 0.4 | 530 | 73400 ± 5400 | 333 ± 26.1 | 4500 | 240 ± 20 | 313 ± 7.4 | 1.3e+06 | 60 ± 3 | 224 ± 36.5 | 3.73e+06 | 76 ± 10 | 14.4 ± 0.2 | 189000 | 220 ± 20 | 224 ± 26.9 | 1.02e+06 | 2400 ± 200 | 77.6 ± 3.3 | Km [1]: 193700 ± 27500 µM; kcat [1]: 50.8 ± 9.4 s⁻¹; kcat/Km [1]: 260 M⁻¹ s⁻¹; Km [5]: 19600 ± 800 µM; kcat [5]: 207 ± 2.9 s⁻¹; kcat/Km [5]: 10600 M⁻¹ s⁻¹; kcat/Km [9]: 32300 M⁻¹ s⁻¹; Km [10]: 5800 ± 500 µM; kcat [10]: 312 ± 14.8 s⁻¹; kcat/Km [10]: 53800 M⁻¹ s⁻¹; Km [11]: 3500 ± 280 µM; kcat [11]: 13.8 ± 0.6 s⁻¹; kcat/Km [11]: 3940 M⁻¹ s⁻¹; Km [12]: 2100 ± 90 µM; kcat [12]: 464 ± 24.2 s⁻¹; kcat/Km [12]: 221000 M⁻¹ s⁻¹; Km [13]: 340 ± 30 µM; kcat [13]: 419 s⁻¹; kcat/Km [13]: 1.23e+06 M⁻¹ s⁻¹ |
| YahK (Escherichia coli K-12) (protein, expressed in E. coli BL21(DE3) with ZnCl2) MKIKAVGAYSAKQPLEPMDITRREPGPNDVKIEIAYCGVCHSDLHQVRSEWAGTVYPCVPGHEIVGRVVAVGDQVEKYAPGDLVGVGCIVDSCKHCEECEDGLENYCDHMTGTYNSPTPDEPGHTLGGYSQQIVVHERYVLRIRHPQEQLAAVAPLLCAGITTYSPLRHWQAGPGKKVGVVGIGGLGHMGIKLAHAMGAHVVAFTTSEAKREAAKALGADEVVNSRNADEMAAHLKSFDFILNTVAAPHNLDDFTTLLKRDGTMTLVGAPATPHKSPEVFNLIMKRRAIAGSMIGGIPETQEMLDFCAEHGIVADIEMIRADQINEAYERMLRGDVKYRFVIDNRTLTD | 38500 ± 2900 | 6.7 ± 0.3 | 180 | 13300 ± 1000 | 11.2 ± 0.7 | 840 | 290 ± 20 | 7.75 ± 0.5 | 26700 | 11 ± 1 | 9.8 ± 0.4 | 894000 | 12 ± 1 | 7.47 ± 0.07 | 622000 | 135 ± 30 | 12.5 ± 1.9 | 92300 | 3600 ± 400 | 32.6 ± 2.1 | Km [14]: 10900 ± 1000 µM; kcat [14]: 11.6 ± 0.6 s⁻¹; kcat/Km [14]: 1100 M⁻¹ s⁻¹; kcat/Km [9]: 9100 M⁻¹ s⁻¹; Km [10]: 4100 ± 400 µM; kcat [10]: 13.4 ± 1.5 s⁻¹; kcat/Km [10]: 3300 M⁻¹ s⁻¹; Km [12]: 2100 ± 100 µM; kcat [12]: 41.6 ± 0.6 s⁻¹; kcat/Km [12]: 19800 M⁻¹ s⁻¹; Km [15]: 2200 ± 200 µM; kcat [15]: 32.1 s⁻¹; kcat/Km [15]: 14600 M⁻¹ s⁻¹; Km [13]: 370 ± 20 µM; kcat [13]: 18.3 s⁻¹; kcat/Km [13]: 49500 M⁻¹ s⁻¹; Km [16]: 4400 ± 400 µM; kcat [16]: 12.3 s⁻¹; kcat/Km [16]: 2800 M⁻¹ s⁻¹ |
